This is an account of results in paper PMC9288512.

Numbering of substitutions follows the chain as printed. Numbers in names are those of the source.

The chains are these.
B1: VHH-B11 (monovalent camelid nanobody against hPCSK9) FR1:Q1E; FR1:Q5L; FR1:S11L; FR1:A14P; FR1:T23A; FR1:V24A; FR3:V87L; FR3:K95R; FR3:P96A; FR3:M101V (protein)
chain: EVQLLESGGGLVQPGGSLRLSCAASGYTYSSNCMGWFRQAPGKEHEGVASIYIGGGSTYYADSVKGRFTISQDNAKNTLYLQMNSLRAEDTAVYYCAVGCQGLVDFGYWDQGTQVTVSS
B2: VHH-B11 (monovalent camelid nanobody against hPCSK9) FR1:Q1E; FR1:Q5L; FR1:S11L; FR1:A14P; FR1:T23A; FR1:V24A; FR2:A54S; FR3:A83S; FR3:V87L; FR3:K95R; … (protein)
chain: B1 chain with A49S, A75S
B3: VHH-B11 (monovalent camelid nanobody against hPCSK9) FR1:Q1E; FR1:Q5L; FR1:S11L; FR1:A14P; FR1:T23A; FR1:V24A; FR2:A54S; FR3:A83S; FR3:K95R; FR3:P96A; FR3:M101V (protein)
chain: B1 chain with A49S, A75S, L79V
B4: VHH-B11 (monovalent camelid nanobody against hPCSK9) FR1:Q1E; FR1:Q5L; FR1:S11L; FR1:A14P; FR1:T23A; FR1:V24A; FR2:A54S; FR3:V87L; FR3:K95R; FR3:P96A; FR3:M101V (protein)
chain: B1 chain with A49S
B5: VHH-B11 (monovalent camelid nanobody against hPCSK9) FR1:Q1E; FR1:Q5L; FR1:S11L; FR1:A14P; FR2:A54S; FR3:Q80R; FR3:A83S; FR3:V87L; FR3:K95R; FR3:P96A; FR3:M101V (protein)
chain: B1 chain with A23T, A24V, A49S, Q72R, A75S

The test deals with recombinant human proprotein convertase subtilisin/kexin 9 (hPCSK9), his-tagged, Q8NBP7. In words: SPR. The conditions noted are these: chain shown with the change; 25 ℃; parent: ~5.013.
Chain of recombinant human proprotein convertase subtilisin/kexin 9 (hPCSK9), his-tagged, Q8NBP7 (Q8NBP7 153-692): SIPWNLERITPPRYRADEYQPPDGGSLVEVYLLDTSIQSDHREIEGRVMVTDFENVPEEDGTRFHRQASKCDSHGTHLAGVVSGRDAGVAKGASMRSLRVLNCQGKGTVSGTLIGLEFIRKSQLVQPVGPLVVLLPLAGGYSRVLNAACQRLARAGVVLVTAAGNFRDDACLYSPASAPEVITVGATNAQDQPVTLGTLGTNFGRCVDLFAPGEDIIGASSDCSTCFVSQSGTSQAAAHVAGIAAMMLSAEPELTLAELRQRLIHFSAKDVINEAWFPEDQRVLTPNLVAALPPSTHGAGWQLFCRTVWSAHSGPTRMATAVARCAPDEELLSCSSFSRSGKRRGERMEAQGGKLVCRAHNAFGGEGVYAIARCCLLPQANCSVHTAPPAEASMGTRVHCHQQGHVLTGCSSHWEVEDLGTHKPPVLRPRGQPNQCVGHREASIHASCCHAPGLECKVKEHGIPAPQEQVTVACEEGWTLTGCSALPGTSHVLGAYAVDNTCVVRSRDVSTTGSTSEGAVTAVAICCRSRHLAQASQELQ
For B1, the Kd amounted to 3.22 nM.
As for B2, the dissociation constant Kd is over 1000 nM.
Turning to B3, the Kd was found to be 11.3 nM.
B4: the Kd is over 1000 nM.
For the molecule B5, the Kd came out at 7.99 nM.

The Kd is a measure of binding affinity in units of concentration.
